These results are taken from publication PMC4935067 (Nature, 2015).

This data set deals with the molecule itself. As to the kind of experiment: SEC.

B1: Csy3, MBP/6xHis-tagged (natural protein, Pseudomonas aeruginosa, UniProt Q02MM1 1-342, looked up)
chain: MSKPILSTASVLAFERKLDPSDALMSAGAWAQRDASQEWPAVTVREKSVRGTISNRLKTKDRDPAKLDASIQSPNLQTVDVANLPSDADTLKVRFTLRVLGGAGTPSACNDAAYRDKLLQTVATYVNDQGFAELARRYAHNLANARFLWRNRVGAEAVEVRINHIRQGEVARAWRFDALAIGLRDFKADAELDALAELIASGLSGSGHVLLEVVAFARIGDGQEVFPSQELILDKGDKKGQKSKTLYSVRDAAAIHSQKIGNALRTIDTWYPDEDGLGPIAVEPYGSVTSQGKAYRQPKQKLDFYTLLDNWVLRDEAPAVEQQHYVIANLIRGGVFGEAEEK
With B1, the binding result is listed as “binds”.
